In patent US20230212256A1 (University of Texas, published 2023):
Blank lines part the entries; values can stand above or below the binder they belong to.

How the values were obtained:
[1] = target: T1, VGLL1 (Vestigial-like 1) peptide on HLA-A*01:01 (human); test: multimer staining
T1 peptide: LSELETPGKY

HLA-A*0101 = target: T2, HLA-A*0101 (human); test: HLA class I immunoprecipitation, acid elution, tandem MS
T2 construct: whole, on cells; The peptide was eluted from total HLA class I immunoprecipitated with W6/32; also called HLA-A1; HLAA1
Procedure: Protein A/G Ultralink resin beads were used to immunoprecipate HLA class I molecules and HLA-bound peptides were then eluted with 0.1M acetic acid. HLA-A, B, C isolation was confirmed by Western blot analysis, then HLA-positive elutes were analyzed by tandem mass spectrometry (MS/MS). HLA class I protein recovery was semi-quantitatively assessed by rating Western blot band intensity on a scale from 0 (not detectable) to 4 (highest intensity). Tumor-associated HLA-bound peptides were injected onto HPLC system (Dionex 3000 RSLC), and separated by reverse-phase chromatography in 0.1% formic acid water-acetonitrile on 1.8 μm C18 (Agilent Technologies) in the MS/MS discovery phase. Peptides were analyzed on an Orbitrap Elite mass spectrometer (Thermo-Fisher) using data-dependent acquisition.

B1: VGLL1 TCR #2 (TCR, V domains shown)
Valpha: ENVEQHPSTLSVQEGDSAVIKCTYSDSASNYFPWYKQELGKRPQLIIDIRSNVGEKKDQRIAVTLNKTAKHFSLHITETQPEDSAVYFCAARGLTGGGNKLTFGTGTQLKVEL
Vbeta: GVTQSPTHLIKTRGQQVTLRCSPKSGHDTVSWYQQALGQGPQFIFQYYEEEERQRGNFPDRFSGHQFPNYSSELNVNALLLGDSALYLCASSVGTGITEAFFGQGTRLTVV
- binding result [1]: recognises

B5: VGLL1-derived 10-mer peptide LSELETPGKY (peptide)
peptide: LSELETPGKY
notes: This is the native peptide eluted from immunoprecipitated HLA class I. The 13C/15N-lysine labeled synthetic peptide served only as the MS standard; also called VGLL1 231-240 peptide; VGLL1 peptide
- binding result (HLA-A*0101): binds

Next, values leading:

- binding result [1]: recognises
B2: VGLL1 TCR #3 (TCR, V domains shown)
Valpha: ENVEQHPSTLSVQEGDSAVIKCTYSDSASNYFPWYKQELGKRPQLIIDIRSNVGEKKDQRIAVTLNKTAKHFSLHITETQPEDSAVYFCAAIPNSGGYQKVTFGIGTKLQVIP
Vbeta: B1 Vbeta

- binding result [1]: recognises
B3: VGLL1 TCR #4 (TCR, V domains shown)
Valpha: QQQVKQSPQSLIVQKGGISIINCAYENTAFDYFPWYQQFPGKGPALLIAIRPDVSEKKEGRFTISFNKSAKQFSLHIMDSQPGDSATYFCAAVRYNFNKFYFGSGTKLNVKP
Vbeta: B1 Vbeta

- binding result [1]: recognises
B4: VGLL1 TCR #1 (TCR, V domains shown)
Valpha: AQKVTQAQTEISVVEKEDVTLDCVYETRDTTYYLFWYKQPPSGELVFLIRRNSFDEQNEISGRYSWNFQKSTSSFNFTITASQVVDSAVYFCALSPGANSKLTFGKGITLSVRP
Vbeta: DAGVTQSPTHLIKTRGQQVTLRCSPKSGHDTVSWYQQALGQGPQFIFQYYEEEERQRGNFPDRFSGHQFPNYSSELNVNALLLGDSALYLCASSVGTGITEAFFGQGTRLTVV
